Source: patent US20240025999A1 (BIOVENTURES, published 2024)

B1: TCR of clonotype 1 (TCR beta CDR3 CASSPTSGGLTWDEQYF, SEQ ID NO:1), HPV 16 E6 91-115 specific T cell clonotype of subject 6 (TCR, V domains shown)
V domain 1: AQSVAQPEDQVNVAEGNPLTVKCTYSVSGNPYLFWYVQYPNRGLQFLLKYITGDNLVKGSYGFEAEFNKSQTSFHLKKPSALVSDSALYFCAVRAPSGSARQLTFGSGTQLTVLP
V domain 2: EAGVAQSPRYKIIEKRQSVAFWCNPISGHATLYWYQQILGQGPKLLIQFQNNGVVDDSQLPKDRFSAERLKGVDSTLKIQPAKLEDSAVYLCASSPTSGGLTWDEQYFGPGTRLTVTE
B2: TCR of clonotype 2 (TCR beta CDR3 CASSHNSGREGNEQFF, SEQ ID NO:2), HPV 16 E6 91-115 specific T cell clonotype of subject 6 (TCR, V domains shown)
V domain 1: GENVEQHPSTLSVQEGDSAVIKCTYSDSASNYFPWYKQELGKRPQLIIDIRSNVGEKKDQRIAVTLNKTAKHFSLHITETQPEDSAVYFCAPRVTGGGNKLTFGTGTQLKVEL
V domain 2: GAGVSQSPRYKVAKRGQDVALRCDPISGHVSLFWYQQALGQGPEFLTYFQNEAQLDKSGLPSDRFFAERPEGSVSTLKIQRTQQEDSAVYLCASSHNSGREGNEQFFGPGTRLTVLE
B3: TCR of clonotype 4 (TCR beta CDR3 CASSWEAGQETQYF, SEQ ID NO:4), HPV 16 E6 91-115 specific T cell clonotype of subject 6 (TCR, V domains shown)
V domain 1: GENVEQHPSTLSVQEGDSAVIKCTYSDSASNYFPWYKQELGKGPQLIIDIRSNVGEKKDQRIAVTLNKTAKHFSLHITETQPEDSAVYFCAASAPGRTDKLIFGTGTRLQVFP
V domain 2: KAGVTQTPRYLIKTRGQQVTLSCSPISGHRSVSWYQQTPGQGLQFLFEYFSETQRNKGNFPGRFSGRQFSNSRSEMNVSTLELGDSALYLCASSWEAGQETQYFGPGTRLLVLE
B4: TCR of clonotype 3 (TCR beta CDR3 CASSFPGENEQFF, SEQ ID NO:3), HPV 16 E6 91-115 specific T cell clonotype of subject 6 (TCR, V domains shown)
V domain 1: GDSVTQMEGPVTLSEEAFLTINCTYTATGYPSLFWYVQYPGEGLQLLLKATKADDKGSNKGFEATYRKETTSFHLEKGSVQVSDSAVYFCALTLSGSARQLTFGSGTQLTVLP
V domain 2: DAGVIQSPRHEVTEMGQEVTLRCKPISGHNSLFWYRQTMMRGLELLIYFNNNVPIDDSGMPEDRFSAKMPNASFSTLKIQPSEPRDSAVYFCASSFPGENEQFFGPGTRLTVLE

Target: T1, HPV 16 E6 91-115 region, given as three overlapping 15-mer peptides (91-105 YGTTLEQQYNKPLCD, SEQ ID NO:21); … (human papillomavirus type 16)
T1 peptide: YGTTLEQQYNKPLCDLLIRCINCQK
Assay: cell-based or functional assay

Row | Binder | Frequency (%) of the clonotype among IFN-gamma secreting cells sorted after peptide stimulation
1 | B1 | 33.3%
2 | B2 | 17%
3 | B3 | 8.6%
4 | B4 | 9.8%
